Test results: publication PMC10397247

Experiments:
Assay in all cases: two-hybrid library CCmax;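 further: natural log of median RNA to DNA barcode read ratio; higher means stronger binding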
[1] = biological target: T1, 4H850-AA; details: mean of both orientations
T1 chain: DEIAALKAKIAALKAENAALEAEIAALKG

[2] = biological target: T2, 4H2725-AA; details: mean of both orientations
T2 chain: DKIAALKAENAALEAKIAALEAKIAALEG

[3] = biological target: T3, 4H909-AA; details: mean of both orientations
T3 chain: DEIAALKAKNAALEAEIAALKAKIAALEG

[4] = biological target: T4, 4H797-AA; details: mean of both orientations
T4 chain: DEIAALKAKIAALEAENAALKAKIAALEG

[5] = biological target: T5, 4H310-AA; details: mean of both orientations
T5 chain: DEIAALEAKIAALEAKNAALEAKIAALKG

[6] = biological target: T6, 4H2649-AA; details: mean of both orientations
T6 chain: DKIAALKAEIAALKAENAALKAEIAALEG

[7] = biological target: T7, 4H570-AA; details: mean of both orientations
T7 chain: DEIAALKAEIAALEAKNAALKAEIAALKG

[8] = biological target: T8, 4H629-AA; details: mean of both orientations
T8 chain: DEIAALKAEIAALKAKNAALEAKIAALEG

[9] = biological target: T9, 4H3381-AA; details: mean of both orientations
T9 chain: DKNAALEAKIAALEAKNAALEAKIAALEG

[10] = biological target: T10, 4H891-AA; details: mean of both orientations
T10 chain: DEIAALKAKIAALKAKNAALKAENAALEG

[11] = biological target: T11, 4H3753-AA; details: mean of both orientations
T11 chain: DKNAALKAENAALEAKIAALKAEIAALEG

[12] = biological target: T12, 4H3016-AA; details: mean of both orientations
T12 chain: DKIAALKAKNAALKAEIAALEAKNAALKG

[13] = biological target: T13, 4H3410-AA; details: mean of both orientations
T13 chain: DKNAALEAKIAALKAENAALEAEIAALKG

[14] = biological target: T14, 4H458-AA; details: mean of both orientations
T14 chain: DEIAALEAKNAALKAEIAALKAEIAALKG

[15] = biological target: T15, 4H710-AA; details: mean of both orientations
T15 chain: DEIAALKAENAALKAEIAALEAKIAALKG

[16] = biological target: T16, 4H3165-AA; details: mean of both orientations
T16 chain: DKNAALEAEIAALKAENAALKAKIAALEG

[17] = biological target: T17, 4H745-AA; details: mean of both orientations
T17 chain: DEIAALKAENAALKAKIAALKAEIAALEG

[18] = biological target: T18, 4H3590-AA; details: mean of both orientations
T18 chain: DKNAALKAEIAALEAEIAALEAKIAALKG

[19] = biological target: T19, 4H3130-AA; details: mean of both orientations
T19 chain: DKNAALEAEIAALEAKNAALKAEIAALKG

[20] = biological target: T20, 4H3697-AA; details: mean of both orientations
T20 chain: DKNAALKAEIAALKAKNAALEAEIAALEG

[21] = biological target: T21, 4H2698-AA; details: mean of both orientations
T21 chain: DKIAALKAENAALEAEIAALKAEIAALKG

[22] = biological target: T22, 4H485-AA; details: mean of both orientations
T22 chain: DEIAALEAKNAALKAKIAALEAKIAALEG

[23] = biological target: T23, 4H3865-AA; details: mean of both orientations
T23 chain: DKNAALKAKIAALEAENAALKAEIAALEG

[24] = biological target: T24, 4H3120-AA; details: mean of both orientations
T24 chain: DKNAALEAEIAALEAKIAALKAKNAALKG

[25] = biological target: T25, 4H930-AA; details: mean of both orientations
T25 chain: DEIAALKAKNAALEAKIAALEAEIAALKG

[26] = biological target: T26, 4H3009-AA; details: mean of both orientations
T26 chain: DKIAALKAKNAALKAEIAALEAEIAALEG

[27] = biological target: T27, 4H2865-AA; details: mean of both orientations
T27 chain: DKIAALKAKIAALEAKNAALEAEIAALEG

[28] = biological target: T28, 4H536-AA; details: mean of both orientations
T28 chain: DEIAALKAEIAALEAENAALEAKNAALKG

[29] = biological target: T29, 4H3395-AA; details: mean of both orientations
T29 chain: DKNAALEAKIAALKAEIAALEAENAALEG

[30] = biological target: T30, 4H94-AA; details: mean of both orientations
T30 chain: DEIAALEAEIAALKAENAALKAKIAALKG

[31] = biological target: T31, 4H2473-AA
T31 chain: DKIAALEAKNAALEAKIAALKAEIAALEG

Binder: DKIAALEAKNAALEAKIAALKAEIAALEG [4H2473-AA]
- interaction score [1]: -0.625
- interaction score [2]: 0.607
- interaction score [3]: 0.0276
- interaction score [4]: -1.58
- interaction score [5]: -0.305
- interaction score [6]: -0.843
- interaction score [7]: 1.26
- interaction score [8]: -1.34
- interaction score [9]: -1.15
- interaction score [10]: -1.65
- interaction score [11]: -0.919
- interaction score [12]: 1.52
- interaction score [13]: -0.429
- interaction score [14]: 1.39
- interaction score [15]: 0.747
- interaction score [16]: -1.43
- interaction score [17]: -1.45
- interaction score [18]: 1.18
- interaction score [19]: -0.173
- interaction score [20]: -1.54
- interaction score [21]: 1.68
- interaction score [22]: 0.85
- interaction score [23]: -0.611
- interaction score [24]: -0.0619
- interaction score [25]: -0.124
- interaction score [26]: 2.07
- interaction score [27]: -0.67
- interaction score [28]: -1.67
- interaction score [29]: -1.43
- interaction score [30]: -0.873
- interaction score [31]: 1.2
